Source: paper PMC8268162, “A Master Regulator BrpR Coordinates the Expression of Multiple Loci for Robust Biofilm and Rugose Colony Development in Vibrio vulnificus”

Biological target: T1, BrpR-His6
T1 chain: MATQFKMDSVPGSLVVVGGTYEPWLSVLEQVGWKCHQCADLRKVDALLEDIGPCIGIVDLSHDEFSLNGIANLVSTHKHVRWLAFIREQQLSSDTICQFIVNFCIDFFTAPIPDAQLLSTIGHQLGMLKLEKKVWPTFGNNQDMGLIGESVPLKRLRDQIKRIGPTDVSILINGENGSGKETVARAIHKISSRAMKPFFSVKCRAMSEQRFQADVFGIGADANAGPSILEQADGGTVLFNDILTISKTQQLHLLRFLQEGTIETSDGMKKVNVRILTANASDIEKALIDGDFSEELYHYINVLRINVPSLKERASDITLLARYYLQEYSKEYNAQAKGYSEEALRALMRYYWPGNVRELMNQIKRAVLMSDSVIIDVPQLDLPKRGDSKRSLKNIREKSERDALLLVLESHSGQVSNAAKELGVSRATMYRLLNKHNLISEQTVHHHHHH
Assay: EMSA; 50 uM c-di-GMP; 40 mM Tris-Cl pH 7.9, 100 mM KCl, 10 mM MgCl2, 1 mM DTT, 0.1 mM EDTA, 0.1 ug/ul BSA, 0.1 ug poly(dI-dC) in 20 ul, 25 min at 30 C; EMSA DNA 5 nM, footprinting DNA 40 nM
Settings: protein: recombinant; tags: C-terminal His6; label: 6-FAM on reverse strand; blunt

B1: BRPBwt (dsDNA)
DNA 1: GTTTGCAATGTCTCATTGGTGCGACGAATGCTTTGGCG
DNA 2: CGCCAAAGCATTCGTCGCACCAATGAGACATTGCAAAC
binding result: binds
